Test results published in patent US20140072613A1, “Compositions and Methods for Treating Cutaneous Scarring” (priority 2012, published 2014).

Key:
266 human kinases [1] = biological target: 266 human kinases (Homo sapiens, UniProt P35968); assay: biochemical; format: biochemical; settings: KDR(h); 100 μM
Description: (§1) Specifically, in these assays, a positively charged substrate is phosphorylated with a radiolabeled phosphate group from an ATP if the kinase is not inhibited by an inhibitor peptide. The positively charged substrate then is attracted to a negatively charged filter membrane, quantified with a scintillation counter, and compared to a 100% activity control.

266 human kinases [2] = biological target: 266 human kinases (Homo sapiens, UniProt P51617); assay: biochemical; format: biochemical; settings: IRAK1(h); 100 μM
Sequence of 266 human kinases (Homo sapiens, UniProt P51617) (P51617 whole entry): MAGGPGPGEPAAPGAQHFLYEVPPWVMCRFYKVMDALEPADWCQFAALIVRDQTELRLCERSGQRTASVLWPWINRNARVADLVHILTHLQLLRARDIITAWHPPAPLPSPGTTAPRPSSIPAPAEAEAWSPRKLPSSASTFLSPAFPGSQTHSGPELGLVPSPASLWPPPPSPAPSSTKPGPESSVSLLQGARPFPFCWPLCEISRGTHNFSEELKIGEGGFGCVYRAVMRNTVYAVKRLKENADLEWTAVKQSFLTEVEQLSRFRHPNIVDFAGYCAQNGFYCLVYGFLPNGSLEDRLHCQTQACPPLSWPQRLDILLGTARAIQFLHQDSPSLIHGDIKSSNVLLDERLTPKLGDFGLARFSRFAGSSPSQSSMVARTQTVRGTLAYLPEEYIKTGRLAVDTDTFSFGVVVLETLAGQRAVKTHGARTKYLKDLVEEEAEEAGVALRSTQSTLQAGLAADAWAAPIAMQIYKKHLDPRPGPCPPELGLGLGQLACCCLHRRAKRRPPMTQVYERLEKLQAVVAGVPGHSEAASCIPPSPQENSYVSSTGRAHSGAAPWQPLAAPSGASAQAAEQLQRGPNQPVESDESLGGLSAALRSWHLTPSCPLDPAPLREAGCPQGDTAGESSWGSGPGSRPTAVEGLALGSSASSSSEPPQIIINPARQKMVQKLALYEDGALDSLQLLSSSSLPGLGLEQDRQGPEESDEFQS
Description: as §1

266 human kinases [3] = biological target: 266 human kinases (Homo sapiens, UniProt P23443); assay: biochemical; format: biochemical; settings: p70S6K(h); 100 μM
Description: as §1

266 human kinases [4] = biological target: 266 human kinases (Homo sapiens, UniProt Q13554); assay: biochemical; format: biochemical; settings: CaMKIIβ(h); 100 μM
Description: as §1

266 human kinases [5] = biological target: 266 human kinases (Homo sapiens, UniProt Q7KZI7); assay: biochemical; format: biochemical; settings: PAR-1Bα(h); 100 μM
Sequence of 266 human kinases (Homo sapiens, UniProt Q7KZI7) (Q7KZI7 whole entry): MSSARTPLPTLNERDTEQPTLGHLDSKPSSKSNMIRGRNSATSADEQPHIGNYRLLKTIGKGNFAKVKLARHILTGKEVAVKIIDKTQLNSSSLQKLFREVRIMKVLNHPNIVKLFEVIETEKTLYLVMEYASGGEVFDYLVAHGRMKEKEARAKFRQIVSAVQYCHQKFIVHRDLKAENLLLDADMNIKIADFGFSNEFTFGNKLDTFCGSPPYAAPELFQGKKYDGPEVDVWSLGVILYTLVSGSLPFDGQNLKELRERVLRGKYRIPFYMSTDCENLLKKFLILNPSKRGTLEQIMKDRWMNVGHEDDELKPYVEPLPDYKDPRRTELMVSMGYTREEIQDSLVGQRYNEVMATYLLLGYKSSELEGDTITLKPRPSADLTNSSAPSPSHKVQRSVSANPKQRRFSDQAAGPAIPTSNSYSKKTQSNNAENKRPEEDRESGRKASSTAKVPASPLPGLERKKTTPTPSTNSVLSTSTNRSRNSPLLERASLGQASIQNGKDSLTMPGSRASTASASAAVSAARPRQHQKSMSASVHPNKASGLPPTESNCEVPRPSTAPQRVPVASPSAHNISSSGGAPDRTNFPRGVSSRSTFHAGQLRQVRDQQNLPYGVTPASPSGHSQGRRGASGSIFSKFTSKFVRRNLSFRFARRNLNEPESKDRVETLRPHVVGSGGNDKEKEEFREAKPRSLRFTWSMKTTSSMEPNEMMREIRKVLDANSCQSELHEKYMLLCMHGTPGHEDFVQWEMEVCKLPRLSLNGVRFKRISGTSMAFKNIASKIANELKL
Description: as §1

266 human kinases [6] = biological target: 266 human kinases (Homo sapiens, UniProt Q13177); assay: biochemical; format: biochemical; settings: PAK2(h); 100 μM
Sequence of 266 human kinases (Homo sapiens, UniProt Q13177) (Q13177 whole entry): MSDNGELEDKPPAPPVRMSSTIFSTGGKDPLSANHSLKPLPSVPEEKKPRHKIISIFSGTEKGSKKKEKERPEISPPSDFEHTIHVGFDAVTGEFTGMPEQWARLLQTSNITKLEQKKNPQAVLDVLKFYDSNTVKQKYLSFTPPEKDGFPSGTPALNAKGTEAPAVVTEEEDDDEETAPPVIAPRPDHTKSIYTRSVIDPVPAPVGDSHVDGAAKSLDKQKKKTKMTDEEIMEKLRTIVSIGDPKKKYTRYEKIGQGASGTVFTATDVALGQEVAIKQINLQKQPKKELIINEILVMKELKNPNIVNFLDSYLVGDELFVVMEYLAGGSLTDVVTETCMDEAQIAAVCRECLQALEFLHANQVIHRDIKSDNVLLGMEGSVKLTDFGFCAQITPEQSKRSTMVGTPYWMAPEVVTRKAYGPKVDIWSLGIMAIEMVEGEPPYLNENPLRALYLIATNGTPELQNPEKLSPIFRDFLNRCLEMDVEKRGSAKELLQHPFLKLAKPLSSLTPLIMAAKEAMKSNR
Description: as §1

266 human kinases [7] = biological target: T1, 266 human kinases (Homo sapiens, UniProt Q05513); assay: biochemical; format: biochemical; settings: PKCζ(h); 100 μM
T1 sequence (Q05513 1-592): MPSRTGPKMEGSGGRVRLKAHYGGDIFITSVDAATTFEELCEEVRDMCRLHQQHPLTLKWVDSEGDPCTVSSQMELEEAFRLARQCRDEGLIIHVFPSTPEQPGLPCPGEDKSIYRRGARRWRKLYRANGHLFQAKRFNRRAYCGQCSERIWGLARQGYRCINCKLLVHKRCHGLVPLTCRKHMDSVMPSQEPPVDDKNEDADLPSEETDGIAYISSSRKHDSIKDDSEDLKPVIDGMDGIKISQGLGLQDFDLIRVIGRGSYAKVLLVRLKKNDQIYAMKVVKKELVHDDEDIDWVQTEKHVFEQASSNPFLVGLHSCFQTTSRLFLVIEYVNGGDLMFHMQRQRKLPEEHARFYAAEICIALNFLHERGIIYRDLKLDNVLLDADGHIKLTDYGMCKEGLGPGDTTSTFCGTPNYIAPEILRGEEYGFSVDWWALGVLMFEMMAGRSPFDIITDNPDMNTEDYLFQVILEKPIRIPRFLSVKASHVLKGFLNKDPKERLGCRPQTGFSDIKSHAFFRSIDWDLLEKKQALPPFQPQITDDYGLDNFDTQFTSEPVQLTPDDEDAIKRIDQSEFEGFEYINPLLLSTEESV
Description: as §1

266 human kinases [8] = biological target: T2, 266 human kinases (Homo sapiens, UniProt Q96BR1); assay: biochemical; format: biochemical; settings: SGK3(h); 100 μM
T2 sequence (Q96BR1 1-496): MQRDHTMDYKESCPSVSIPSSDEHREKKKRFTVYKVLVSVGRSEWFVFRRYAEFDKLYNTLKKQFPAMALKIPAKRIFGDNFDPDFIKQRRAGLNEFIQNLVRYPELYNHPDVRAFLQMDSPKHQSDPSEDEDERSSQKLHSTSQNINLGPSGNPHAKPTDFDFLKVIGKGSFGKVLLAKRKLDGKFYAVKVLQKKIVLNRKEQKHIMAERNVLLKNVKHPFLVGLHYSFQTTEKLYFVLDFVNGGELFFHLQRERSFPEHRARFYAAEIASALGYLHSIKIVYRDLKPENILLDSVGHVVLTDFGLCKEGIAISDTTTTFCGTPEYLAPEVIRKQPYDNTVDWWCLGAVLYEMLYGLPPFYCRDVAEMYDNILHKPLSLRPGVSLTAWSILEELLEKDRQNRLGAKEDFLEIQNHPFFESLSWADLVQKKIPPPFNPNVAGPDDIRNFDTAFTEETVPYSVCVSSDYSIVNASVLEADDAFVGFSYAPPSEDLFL
Description: as §1

MAPKAP-K2 (h) = MAPKAP-K2 (h) (Homo sapiens, UniProt P49137); assay: Millipore radiometric kinase assay (IC50 Profiler Express / kinase profiling); format: biochemical; settings: MAPKAP-K2(h); 100 μM
Sequence of MAPKAP-K2 (h) (P49137 whole entry): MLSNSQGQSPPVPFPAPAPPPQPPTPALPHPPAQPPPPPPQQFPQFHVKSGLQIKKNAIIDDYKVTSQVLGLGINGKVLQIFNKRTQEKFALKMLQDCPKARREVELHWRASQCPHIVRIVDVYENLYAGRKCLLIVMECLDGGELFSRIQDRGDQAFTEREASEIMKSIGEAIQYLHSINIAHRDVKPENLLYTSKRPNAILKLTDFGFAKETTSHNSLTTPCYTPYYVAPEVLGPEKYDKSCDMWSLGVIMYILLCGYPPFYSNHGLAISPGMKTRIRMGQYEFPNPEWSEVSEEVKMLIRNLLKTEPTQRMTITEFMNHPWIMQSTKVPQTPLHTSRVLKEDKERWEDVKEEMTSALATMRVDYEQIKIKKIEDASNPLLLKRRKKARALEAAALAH
Description: as §1

TrkB (h) = TrkB (h) (Homo sapiens, UniProt Q16620); assay: as above; format: biochemical; settings: TrkB(h); 100 μM
Description: as §1

MAPKAP-K3 (h) = MAPKAP-K3 (h) (Homo sapiens, UniProt Q16644); assay: as above; format: biochemical; settings: MAPKAP-K3(h); 100 μM
Description: as §1

Fes(h) = Fes(h) (Homo sapiens, UniProt P07332); assay: biochemical; settings: 100 μM
Sequence of Fes(h) (P07332 whole entry): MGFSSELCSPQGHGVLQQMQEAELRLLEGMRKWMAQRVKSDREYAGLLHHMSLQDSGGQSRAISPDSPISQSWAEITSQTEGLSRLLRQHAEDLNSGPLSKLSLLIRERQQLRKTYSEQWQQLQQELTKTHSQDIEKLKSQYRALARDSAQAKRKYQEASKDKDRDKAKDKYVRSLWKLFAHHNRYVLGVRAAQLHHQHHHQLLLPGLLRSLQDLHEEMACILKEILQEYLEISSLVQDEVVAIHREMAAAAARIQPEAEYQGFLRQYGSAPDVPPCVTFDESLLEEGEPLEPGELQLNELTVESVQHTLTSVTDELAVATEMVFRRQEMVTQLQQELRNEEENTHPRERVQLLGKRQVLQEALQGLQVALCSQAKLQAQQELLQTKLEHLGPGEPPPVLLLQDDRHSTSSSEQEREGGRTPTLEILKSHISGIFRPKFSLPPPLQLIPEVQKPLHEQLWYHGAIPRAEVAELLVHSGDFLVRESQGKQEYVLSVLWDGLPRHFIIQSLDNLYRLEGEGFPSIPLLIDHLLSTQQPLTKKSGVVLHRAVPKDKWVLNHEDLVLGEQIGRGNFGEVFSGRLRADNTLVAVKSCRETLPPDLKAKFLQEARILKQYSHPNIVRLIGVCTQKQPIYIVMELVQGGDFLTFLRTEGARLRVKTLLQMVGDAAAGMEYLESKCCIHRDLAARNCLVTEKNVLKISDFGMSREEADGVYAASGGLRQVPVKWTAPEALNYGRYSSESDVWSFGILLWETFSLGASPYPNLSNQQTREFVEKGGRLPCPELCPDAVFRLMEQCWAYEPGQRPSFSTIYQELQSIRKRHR
Description: as §1

CaMKI (h) = CaMKI (h) (Homo sapiens, UniProt Q14012); assay: biochemical; settings: CaMKI(h); 100 μM
Sequence of CaMKI (h) (Q14012 whole entry): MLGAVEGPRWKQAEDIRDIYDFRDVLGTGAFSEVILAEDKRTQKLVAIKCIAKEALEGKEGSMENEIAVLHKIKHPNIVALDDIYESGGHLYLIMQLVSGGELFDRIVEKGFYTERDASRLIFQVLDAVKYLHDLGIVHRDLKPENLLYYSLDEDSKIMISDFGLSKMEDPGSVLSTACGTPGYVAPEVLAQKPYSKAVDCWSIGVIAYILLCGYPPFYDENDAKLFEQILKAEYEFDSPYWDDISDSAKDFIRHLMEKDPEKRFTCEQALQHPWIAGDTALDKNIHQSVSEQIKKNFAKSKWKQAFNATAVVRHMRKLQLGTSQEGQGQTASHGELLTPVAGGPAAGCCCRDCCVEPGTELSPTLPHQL
Description: as §1

CaMK1δ (h) = CaMK1δ (h) (Homo sapiens, UniProt Q8IU85); assay: biochemical; settings: CaMKIδ(h); 100 μM
Description: as §1

MSK1 (h) = MSK1 (h) (Homo sapiens, UniProt O75582); assay: biochemical; settings: MSK1(h); 100 μM
Description: as §1

FGFR2 (h) = FGFR2 (h) (Homo sapiens, UniProt P21802); assay: biochemical; settings: FGFR2(h); 100 μM
Description: as §1

Pim-1 (h) = Pim-1 (h) (Homo sapiens, UniProt P11309); assay: biochemical; settings: Pim-1(h); 100 μM
Description: as §1

Sequence of 266 human kinases (Homo sapiens, UniProt P35968) (P35968 20-1356): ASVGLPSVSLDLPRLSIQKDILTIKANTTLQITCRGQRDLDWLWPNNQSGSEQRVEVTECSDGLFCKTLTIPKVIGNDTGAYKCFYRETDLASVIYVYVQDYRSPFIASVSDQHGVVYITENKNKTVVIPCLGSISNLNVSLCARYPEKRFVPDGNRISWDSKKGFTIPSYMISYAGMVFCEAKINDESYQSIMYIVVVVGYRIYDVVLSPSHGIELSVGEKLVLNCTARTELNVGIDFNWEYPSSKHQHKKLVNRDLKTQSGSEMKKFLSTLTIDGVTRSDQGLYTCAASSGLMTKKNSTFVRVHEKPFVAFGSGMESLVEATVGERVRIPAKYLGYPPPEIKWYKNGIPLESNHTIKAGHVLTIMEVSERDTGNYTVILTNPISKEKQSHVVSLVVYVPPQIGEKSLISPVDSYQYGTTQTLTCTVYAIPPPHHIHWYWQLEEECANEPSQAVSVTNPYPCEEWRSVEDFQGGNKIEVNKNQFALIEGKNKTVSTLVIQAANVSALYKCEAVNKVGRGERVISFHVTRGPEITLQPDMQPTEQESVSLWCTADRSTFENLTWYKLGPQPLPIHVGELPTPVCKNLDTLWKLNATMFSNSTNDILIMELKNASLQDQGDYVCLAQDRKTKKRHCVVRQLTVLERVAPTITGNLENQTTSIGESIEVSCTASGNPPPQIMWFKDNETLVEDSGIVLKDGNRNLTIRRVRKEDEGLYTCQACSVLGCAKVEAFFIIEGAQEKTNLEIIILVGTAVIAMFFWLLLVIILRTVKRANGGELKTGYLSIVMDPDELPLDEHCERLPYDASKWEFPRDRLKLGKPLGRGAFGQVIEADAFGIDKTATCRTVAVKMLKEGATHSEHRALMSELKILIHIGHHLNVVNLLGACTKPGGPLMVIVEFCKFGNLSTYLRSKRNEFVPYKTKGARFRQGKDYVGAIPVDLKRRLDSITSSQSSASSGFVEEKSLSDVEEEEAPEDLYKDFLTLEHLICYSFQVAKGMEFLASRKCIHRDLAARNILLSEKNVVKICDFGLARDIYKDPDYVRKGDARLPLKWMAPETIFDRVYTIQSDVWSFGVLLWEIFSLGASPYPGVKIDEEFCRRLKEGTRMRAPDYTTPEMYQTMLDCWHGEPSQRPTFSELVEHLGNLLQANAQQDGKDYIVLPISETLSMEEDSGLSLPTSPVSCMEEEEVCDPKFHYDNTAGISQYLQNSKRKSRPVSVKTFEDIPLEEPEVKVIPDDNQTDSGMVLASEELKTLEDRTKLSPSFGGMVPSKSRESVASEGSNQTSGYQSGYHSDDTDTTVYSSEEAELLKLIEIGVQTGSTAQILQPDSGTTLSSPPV

Sequence | % activity (266 human kinases [1]) [%] | % activity (266 human kinases [2]) [%] | % activity (266 human kinases [3]) [%] | % activity (266 human kinases [4]) [%] | % activity (266 human kinases [5]) [%] | % activity (266 human kinases [6]) [%] | % activity (266 human kinases [7]) [%] | % activity (266 human kinases [8]) [%] | % activity (MAPKAP-K2 (h)) [%] | % activity (TrkB (h)) [%] | % activity (MAPKAP-K3 (h)) [%] | % activity (Fes(h)) [%] | % activity (CaMKI (h)) [%] | % activity (CaMK1δ (h)) [%] | % activity (MSK1 (h)) [%] | % activity (FGFR2 (h)) [%] | % activity (Pim-1 (h)) [%]
HRRIKAWLKKIKALARQLGVAA (mammal) [MMI-0500] | 15 | 5 | 3 | 3 | 97 | 44 | 7 | −3 | 9 | 12 | 9 | 23 | −1 | 0 | 8 | 12 | 0
YARAAARQARAKALNRQLGVA (mammal) [MMI-0200] | 110 | 101 | 84 | 53 | 110 | 69 | 98 | 58 | 35 | 7 | 39 | 74 | 21 | 47 | 50 | 73 | 18
